Test results as given in the supplement of paper PMC7877785.
± gives the uncertainty stated by the source.

Test: self-splicing fitness, log relative to wild type (ln ratio); higher = more splicing; Tetrahymena group I intron in knt gene, E. coli kanamycin selection, DiMSum; sequences stand for … in CUCUCU…GGAGGGAAAAGUUAUCAGGCAUGCACCUGGUAGCUAGUCUUUAAACCAAUAGAUUGCAUCGGUUUAAAAGGCAAGACCGUCAAAUUGCGGGAAAGGGGUCAACAGCCGUUCAGUACCAAGUCUCAGGGGAAACUUUGAGAUGGCCUUGCAAAGGGUAUGGUAAUAAGCUGACGGACAUGGUCCUAACCACGCAGCCAAGUCCUAAGUCAACAGAUCUUCUGUUGAUAUGGAUGCAGUUCACAGACUAAAUGUCGGUCGGGGAAGAUGUAUUCUUCUCAUAAGAUAUAGUCGGACCUCUCCUUAAUGGGAGCUAGCGGAUGAAGUGAUGCAACACUGGAGCCGCUGGGAACUAAUUUGUAUGCGAAAGUAUAUUGAUUAGUUUUGGAGUACUCGUGGUCG
In short: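 A randomised library covering all eight P1ex-region intron nucleotides was built with the intron in the knt kanamycin-resistance gene on pET-22b(+) and held in E. coli BL21(DE3). Cells were grown overnight at 37°C or 30°C on LB agar, with or without 25 μg/mL kanamycin, plus 100 μg/mL carbenicillin, 50 μM IPTG and 0.2% rhamnose, and pooled colonies were amplicon-sequenced on an Illumina HiSeq 2500. DiMSum fitness is the error-weighted combination of wild-type-normalised replicate fold changes, kanamycin versus none.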

Sequence	self-splicing fitness (ln) (30 °C)	self-splicing fitness (ln) (37 °C)
UUAAAGCAAUAUUACGCUCC	-1.79 ± 0.19	-1.08 ± 0.24
UUAAAGCAAUAUUACGCUGC	-2.18 ± 0.15	-2.71 ± 0.38
UUAAAGCAAUAUUACGGGCU	-2.46 ± 0.11	-0.716 ± 0.1
UUAAAGCAAUAUUACGUAAU	-2.43 ± 0.12	-1.91 ± 0.14
UUAAAGCAAUAUUACGUCUU	-1.23 ± 0.082	-0.988 ± 0.12
UUAAAGCAAUAUUACGUGAU	-3.01 ± 0.15	-1.15 ± 0.14
UUAAAGCAAUAUUACGUUUU	-3.84 ± 0.2	-2.27 ± 0.18
UUACAGCAAUAUUACGAAGU	-3.35 ± 0.29	-2.7 ± 0.36
UUACAGCAAUAUUACGAGAA	-1.83 ± 0.2	-1.59 ± 0.2
UUACAGCAAUAUUACGAUAC	-3.01 ± 0.32	-3.46 ± 0.39
UUACAGCAAUAUUACGAUGA	-0.445 ± 0.06	0.596 ± 0.078
UUACAGCAAUAUUACGAUGG	-1.16 ± 0.062	-0.0316 ± 0.086
UUACAGCAAUAUUACGAUUG	-1.76 ± 0.091	-0.796 ± 0.1
UUACAGCAAUAUUACGAUUU	-1.09 ± 0.059	-0.22 ± 0.084
UUACAGCAAUAUUACGCAAA	-1.83 ± 0.17	-0.688 ± 0.12
UUACAGCAAUAUUACGCGCA	-0.521 ± 0.11	-0.892 ± 0.12
UUACAGCAAUAUUACGCGUG	-1.17 ± 0.081	-0.156 ± 0.093
UUACAGCAAUAUUACGGAAU	-3.68 ± 0.2	-2.7 ± 0.17
UUACAGCAAUAUUACGGCCU	-0.981 ± 0.17	-1.23 ± 0.26
UUACAGCAAUAUUACGGGAG	-1.23 ± 0.071	-0.858 ± 0.077
UUACAGCAAUAUUACGGUUA	-0.071 ± 0.058	0.344 ± 0.07
UUACAGCAAUAUUACGGUUG	-0.8 ± 0.054	-0.338 ± 0.07
UUACAGCAAUAUUACGUAGG	-1.12 ± 0.066	-1.19 ± 0.096

Sequence	self-splicing fitness (ln) (30 °C)	self-splicing fitness (ln) (37 °C)
UUACAGCAAUAUUACGUCUU	-1.49 ± 0.069	-0.819 ± 0.09
UUACAGCAAUAUUACGUGCU	-3.78 ± 0.2	-2.26 ± 0.23
UUACAGCAAUAUUACGUGGA	-1.88 ± 0.095	-1.41 ± 0.094
UUAGAGCAAUAUUACGAAUU	-1.77 ± 0.28	
UUAGAGCAAUAUUACGACAU	-1.894 ± 0.018	-1.19 ± 0.036
UUAGAGCAAUAUUACGACUC	-2.73 ± 0.39	
UUAGAGCAAUAUUACGAGAU		-2.03 ± 0.43
UUAGAGCAAUAUUACGAGCG	-0.362 ± 0.17	-0.824 ± 0.25
UUAGAGCAAUAUUACGAGGU		-2.29 ± 0.35
UUAGAGCAAUAUUACGAUUU	-2.08 ± 0.18	-1.88 ± 0.26
UUAGAGCAAUAUUACGCAAA	-1.89 ± 0.14	-0.682 ± 0.16
UUAGAGCAAUAUUACGCCAU	-2.82 ± 0.32	
UUAGAGCAAUAUUACGCGAU	-3.09 ± 0.19	-2.19 ± 0.24
UUAGAGCAAUAUUACGCGCG	-0.351 ± 0.16	0.871 ± 0.18
UUAGAGCAAUAUUACGCGGG	-1.91 ± 0.13	-0.56 ± 0.13
UUAGAGCAAUAUUACGCUCU	-3.64 ± 0.47	-1.85 ± 0.3
UUAGAGCAAUAUUACGCUGC		-2.29 ± 0.37
UUAGAGCAAUAUUACGCUGG	-1.75 ± 0.11	-0.227 ± 0.18
UUAGAGCAAUAUUACGGAAG	-2.58 ± 0.33	
UUAGAGCAAUAUUACGGAUA	-2.47 ± 0.31	
UUAGAGCAAUAUUACGGCAC	-3.59 ± 0.38	-1.95 ± 0.38
UUAGAGCAAUAUUACGGCAG	-1.01 ± 0.18	-0.707 ± 0.24
